According to article PMC5454378, “Histone deacetylase 10 structure and molecular function as a polyamine deacetylase” (Nature Communications, 2017):

Substrate: CC(=O)NCCCC[C@H](NC(=O)[C@H](C)NC(=O)CNC(C)=O)C(=O)N[C@@H](CC(N)=O)C(=O)N[C@@H](CC(C)C)C(=O)N[C@@H](CCC(N)=O)C(N)=O
Assay: purified protein, by the assay type
Design: discontinuous LC-MS deacetylation assay, dansylated product quantified, steady-state kinetics
Conditions: 50.0 °C
Protocol: To study steady-state kinetics with non-fluorogenic peptide substrates and acetylpolyamines, a discontinuous LC–MS was employed based on the protocol of assaying nonfluorogenic acetyllysine peptide substrates for HDAC6 (ref. [17]). Assays were performed in triplicate. Briefly, 5 μl of enzyme (0.050–20 μM) in HEPES buffer (20 mM HEPES (pH 7.5), 100 mM NaCl, 5 mM KCl, 1 mM MgCl2) was added to 35 μl of substrate solution to initiate the reaction. […] The deacetylation products were derivatized with dansyl chloride at 50 °C for 2 hrs. The deacetylation products were detected by LC–MS using a Waters SQD equipped with an Acquity UPLC (Waters, Milford, MA, USA) and quantified by using the standard curves generated from the mass signals of the corresponding deacetylated polyamines and peptides. Inhibition of HDAC10 activity was measured by using 0.49 μM zHDAC10 with 192 μM N^8-acetylspermidine. Data were analysed by logistic regression for IC50 determination and the inhibition constant Ki was calculated based on the Cheng-Prusoff equation, Ki=IC50 / (1+[S]/KM)[45]. Assays were performed in triplicate at room temperature.

B1: zHDAC6 CD2 (Danio rerio) (protein)
chain: MDAVPDTKGSSGPPRGTPETKNNKKNLQEARRKGRMDRSKAEEEMSNELQNLDVQGKSKATGTGLVYVDAFTRFHCLWDASHPECPARVSTVMEMLETEGLLGRCVQVEARAVTEDELLLVHTKEYVELMKSTQNMTEEELKTLAEKYDSVYLHPGFFSSACLSVGSVLQLVDKVMTSQLRNGFSINRPPGHHAQADKMNGFCMFNNLAIAARYAQKRHRVQRVLIVDWDVHHGQGIQYIFEEDPSVLYFSVHRYEDGSFWPHLKESDSSSVGSGAGQGYNINLPWNKVGMESGDYITAFQQLLLPVAYEFQPQLVLVAAGFDAVIGDPKGGMQVSPECFSILTHMLKGVAQGRLVLALEGGYNLQSTAEGVCASMRSLLGDPCPHLPSSGAPCESALKSISKTISDLYPFWKSLQTFEGGPLSEVSPLPAPVCAEVKVSSPITGLVYDQRMMLHHNMWDSHHPELPQRISRIFSRHEELRLLSRCHRIPARLATEEELALCHSSKHISIIKSSEHMKPRDLNRLGDEYNSIFISNESYTCALLAAGSCFNSAQAILTGQVRNAVAIVRPPGHHAEKDTACGFCFFNTAALTARYAQSITRESLRVLIVDWDVHHGNGTQHIFEEDDSVLYISLHRYEDGAFFPNSEDANYDKVGLGKGRGYNVNIPWNGGKMGDPEYMAAFHHLVMPIAREFAPELVLVSAGFDAARGDPLGGFQVTPEGYAHLTHQLMSLAAGRVLIILEGGYNLTSISESMSMCTSMLLGDSPPSLDHLTPLKTSATVSINNVLRAHAPFWSSLRVNIPESLRLSLPSPKPKGKCTPGGKGKKSPRQSTPSQSPGQATHRPDQSGFDELTADLLSLNLNTSTSSNTSPESVAVGGARRKVKPNTHRVSAGLESESPLKLNPEKAGAGDDTDVKAETPNRSISEPVVTCDSSAVKDQESLVLEAAGGNTVQSVLERVFGAQATDVDTMYVVDPLPWCPHLESVRPVPAGGIDVFQPCEECGGEAENWICLFCYKVLCGRYVNQHMVTHGQESGHPVVLSFADLSVWCYACESYVHNKVLHEAKNAAHLVKFGEGIHPFN
notes: catalytic domain 2
- Km: 150 ± 20 µM
- kcat: 1.26 ± 0.07 s⁻¹
- kcat/Km: 8300 M⁻¹ s⁻¹
